A short description of the data set: protein stability index of a GFP-peptide fusion (GPS, HEK-293T) (PSI 1-6); higher = more stable.
Setting [1] is: treatment: DMSO, c terminus: a fixed tail appended.
The mark [2] stands for this setting: treatment: MLN4924 1 uM, 8 h, c terminus: a fixed tail appended.

± gives the standard deviation.
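Note: 24-mer peptide tiles fused after GFP, lentivirally expressed, FACS-sorted into six equal bins by GFP/DsRed ratio, decoded by Illumina sequencing, PSI is the read-weighted mean bin number.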

Consider DIALNKHRSRRKWCFWNSSPAVA [RHOBTB1], for which the protein stability index is, setting by setting: (treatment: DMSO, c terminus: native) 2.46 ± 1.4; (treatment: MLN4924 1 uM, 8 h, c terminus: native) 2.87 ± 1.8. With KQAEICQLEEKLEIANEDRKHALE [CCDC89], the protein stability index runs as follows: under setting [1], 5.52 ± 0.28; under setting [2], 5.49 ± 0.077. Consider DVGCISVTVPSMLSRLLSRKRAVP [OR3A1], for which the protein stability index reads like this: under setting [1], 2.71 ± 0.26; under setting [2], 2.85 ± 0.19. Consider SSRIEQGEWGGRHPSWPWTRCLRM, for which the protein stability index was 2.5 ± 0.19 under setting [1] and 2.67 ± 0.38 under setting [2].

As for EEAVPEEEGPTVVLNPHPSLGYKE [CHGA], the protein stability index was 5.33 ± 0.28 under setting [1] and 5.32 ± 0.38 under setting [2]. For LEEAKKMEMAKFRYILPVYGICRE [RIPK4], the protein stability index under setting [1] worked out at 2.26 ± 0.23 and the protein stability index under setting [2] is 2.33 ± 0.31. RRSFLIEHQRSHTGERPHQCIECG [ZSCAN9]: the protein stability index amounted to 3.3 ± 0.39 under setting [1] and 3.8 ± 0.35 under setting [2]. Taken in the same sequence, the figures for RKSVRYTRQKKNLPDSPLRFDGLP [TRIM15] were 3.59 ± 0.19 and 3.66 ± 0.12. The corresponding values for HGQLDDLIFIFYKNGLPSPERSYV [PPEF2] are 2.88 ± 0.41 and 2.35 ± 0.44. Taken in the same sequence, the figures for VLVAETTMARIRRVYVSGLMKGGA [APMAP] were 2.17 ± 0.27 and 2.1 ± 0.28. As for LYYYMTQTEELKYSIDQEFLKEYF [NLN], the protein stability index reads like this: under setting [1], 2.74 ± 0.85; under setting [2], 2.39 ± 0.62. The corresponding values for KNIFGTPEFVAPEIVNYEPLGLEA [DAPK3] are 3.95 ± 0.23 and 4.26 ± 0.51. Taken in the same sequence, the figures for QRILRIMCRLEELGLAGRCLTLTP [HDAC6] were 2.39 ± 0.44 and 2.34 ± 0.39. Taken in the same sequence, the figures for NLFFAWIKIFKYISFNKTMTQLSS [PKD2L1] were 3.05 ± 0.49 and 2.99 ± 0.44.

For the sequence CLVCQASFCELHLKPHLEGAAFRD [TRIM29], the protein stability index runs as follows: under setting [1], 3.68 ± 0.32; under setting [2], 3.67 ± 0.43.

For the sequence VLRGLARPEHPPPAPTGQDDPQSQ [TMEM175], the protein stability index is 5.39 ± 0.45 under setting [1] and 5.54 ± 0.22 under setting [2]. The corresponding values for LQGLSLIVTWFMLLYAQGLLAIQF [SLC19A2] are 3.16 ± 0.26 and 3.16 ± 0.26. The corresponding values for GTDGYMPRELASMSLVLHGNNLLV [KLHDC10] are 2.72 ± 0.68 and 2.35 ± 0.56. For ATTIDNSRVILEIDNARLAADDFR [KRT15], the protein stability index reads like this: under setting [1], 3.7 ± 0.31; under setting [2], 3.74 ± 0.3. With LAAVLVEPKLHTPMYFFLGNLSVL [OR3A1], the protein stability index worked out at 3.56 ± 0.33 under setting [1] and 3.57 ± 0.57 under setting [2]. Taken in the same sequence, the figures for HPLAYGMVGPLAQDPQSPMAGLRW [POMT2] were 2.85 ± 0.39 and 2.77 ± 0.18. The corresponding values for AFTMEQVRTLEGVFQHHQYLSPLE [VENTX] are 2.83 ± 0.16 and 2.28 ± 0.23.

With ACGGLDNKCSVYPLTFDKNENMAA [GNB5], the protein stability index is, setting by setting: under setting [1], 3.69 ± 0.093; under setting [2], 3.43 ± 0.41.

Sequence RFNKLGLDHLSLGEEPVPHQQVEE [NEK8] displayed a protein stability index under setting [1] of 4.91 ± 0.22 and a protein stability index under setting [2] of 4.89 ± 0.26. With NPFYHCLVAEILPAPGKLLGPCVV [SAT2], the protein stability index is, setting by setting: under setting [1], 3.16 ± 0.97; under setting [2], 3.07 ± 1.2.

With GCLKMNPDDRLTCSQLLESSYFDS [CDKL4], the protein stability index amounted to 3.4 ± 0.45 under setting [1] and 3.54 ± 0.21 under setting [2]. Take AFFASHQCSNRIGSMKIKSSWDID [FBXO34]: the protein stability index under setting [1] was determined as 2.46 ± 0.15 and the protein stability index under setting [2] worked out at 2.42 ± 0.17. NPFAKGFRENGRNCKRERDARVKR [TBX6] came in with a protein stability index under setting [1] of 4.1 ± 0.24 and a protein stability index under setting [2] of 4.09 ± 0.36. Taken in the same sequence, the figures for SAPPITPECRQVLKTSRKDVKDKE [CHGB] were 5.26 ± 0.25 and 5.41 ± 0.22. Take FNYELVKSWLNGFRPKDQTSVGMS [SLC25A39]: the protein stability index was 1.95 ± 0.32 under setting [1] and 1.97 ± 0.3 under setting [2]. WEPFDWGRLLEALCREEPVVQGPD [FANCE] yielded a protein stability index under setting [1] of 3.001 ± 0.014 and a protein stability index under setting [2] of 3.22 ± 0.23. Taken in the same sequence, the figures for TPPEEQQEAEEPKARVLRSKSLCH [CDC25B] were 5.37 ± 0.26 and 5.37 ± 0.24.

As for FVEDSFDPNINPTIGASFMTKTVQ [RAB22A], the protein stability index is 2.97 ± 0.27 under setting [1] and 3.34 ± 0.46 under setting [2]. The corresponding values for GGTGSGDGNKIFLCHCGKAFSHKS [ZBTB22] are 2.27 ± 0.38 and 2.58 ± 0.41. In the case of RNQGNFSVVGTVLAATQAEKAVAN [ZC2HC1C], the protein stability index is, setting by setting: under setting [1], 4.28 ± 0.15; under setting [2], 4.24 ± 0.42. Taken in the same sequence, the figures for KLQREMERREALCRQLSESESSLE [CCDC6] were 4.68 ± 0.18 and 4.85 ± 0.16. Taken in the same sequence, the figures for QFAISRELIRNIYNSFHKLRDRAE [SNX8] were 2.19 ± 0.13 and 2.23 ± 0.21.

Regarding TGREMHGKNWSKLCKDCQVIDGRN [TPPP], the protein stability index by setting is: under setting [1], 3.14 ± 0.16; under setting [2], 3.49 ± 0.11. The corresponding values for VVKYRRPMDVYETGIEYIVAQGPT [ADAMTSL2] are 2.13 ± 0.5 and 2.25 ± 0.46.

Take EMMSQALKATFSGFTKEQQRLGIP [ETS1]: the protein stability index under setting [1] turned out to be 2.35 ± 0.28 and the protein stability index under setting [2] was 2.49 ± 0.2. For the sequence CCEVETIRRAYPDANLLNDRVLRA [CCND1], the protein stability index was 2.86 ± 0.42 under setting [1] and 2.95 ± 0.23 under setting [2]. The corresponding values for KEKTAKHFFALKVMSIPDVIRLKQ [PRKX] are 2.44 ± 0.23 and 2.22 ± 0.2. The corresponding values for LGLTNQSRRYNRKEPAEFNGDGAF [ZNF649] are 3.96 ± 0.29 and 4.26 ± 0.37.

The sequence LMELCRLYHRADVEKVLRRWVDEE [EDARADD] yielded a protein stability index under setting [1] of 2.5 ± 0.58 and a protein stability index under setting [2] of 2.4 ± 0.33. The corresponding values for SAAPGHPQDGSYPRQADHDDHECC [KCNA1] are 5.39 ± 0.4 and 5.6 ± 0.1.

On to HFQPNSPASDLEAALEAAGEGLNV [NANOGP8], for which the protein stability index reads like this: under setting [1], 5.05 ± 0.26; under setting [2], 5.24 ± 0.28.

For the sequence AEEAEILHSACGLSKDHQEVETEG [TOR1AIP2], the protein stability index by setting is: under setting [1], 5.45 ± 0.33; under setting [2], 5.72 ± 0.24. Regarding DHYQRVKREREKEDIALNKHRSRR [RHOBTB1], the protein stability index is 4.23 ± 0.25 under setting [1] and 4.38 ± 0.21 under setting [2]. The corresponding values for TLPLQDRELGPEELDELQAAFEEF [CABP4] are 5.27 ± 0.23 and 5.27 ± 0.24. For the sequence AIPTKKSLPSPSSSGHQNRRFSSE [FBF1], the protein stability index came to 4.82 ± 0.27 under setting [1] and 4.9 ± 0.15 under setting [2]. The corresponding values for AQVRKLELERAQHELLLGSLQQQH [FBF1] are 3.62 ± 0.18 and 3.71 ± 0.17. Taken in the same sequence, the figures for HDFLSDLFSDDYGGKNCKKPAEYG [CEBPB] were 3.83 ± 0.16 and 3.8 ± 0.17. Regarding GDKYEHHSYMGMRGFCAFLGSWLV [POMT2], the protein stability index turned out to be 2.23 ± 0.57 under setting [1] and 1.73 ± 0.29 under setting [2]. The corresponding values for EARKYASNLLKAGFIRHTVNKITF [DVL3] are 2.31 ± 0.48 and 2.16 ± 0.18.

Consider DEKYGVPSLEELGFDTDGLSSAVW [CRY1], for which the protein stability index is, setting by setting: under setting [1], 3.65 ± 0.22; under setting [2], 3.86 ± 0.45. In the case of AGYRLGPAQPGADSSFPPALAEGY [TBX6], the protein stability index by setting is: under setting [1], 3.45 ± 0.38; under setting [2], 3.62 ± 0.23. The corresponding values for SWLEENVHEVLQAVDAGDPAVEAC [TCF25] are 4.86 ± 0.14 and 4.84 ± 0.32. The corresponding values for KERPLVIGHFNTASGVGFILGPVV [MFSD9] are 3.04 ± 1.1 and 2.77 ± 0.51.

Take RPEEEEDELAHRCSSFMAPPVTDL [CPOX]: the protein stability index was determined as 5.05 ± 0.26 under setting [1] and 5.03 ± 0.18 under setting [2].

As to EMSRGEQDLIEDLKLARKAYHDPM [NET1], the protein stability index is 4.5 ± 0.27 under setting [1] and 4.47 ± 0.33 under setting [2].

Take VTDKTLLICKYDFIMLSCVQLQRI [TPRG1]: the protein stability index turned out to be 3.35 ± 0.84 under setting [1] and 3.48 ± 0.72 under setting [2].

Turning to DFPEEDDPTNWLRCYYYEDTISTI [NCF4], the protein stability index runs as follows: under setting [1], 3.28 ± 0.25; under setting [2], 3.2 ± 0.22.

For FYHYFEDKENIYILLEYCSRRSMA [PLK2], the protein stability index came out at 2.34 ± 0.53 under setting [1] and 2.21 ± 0.27 under setting [2].

Turning to KGTFKDYVRDRADLNKDKPVIPAA [ETS1], the protein stability index reads like this: under setting [1], 4.35 ± 0.13; under setting [2], 4.43 ± 0.16. The corresponding values for LHNLLLHQEGAKMAVRLAGGLQKM [CTNNB1] are 2.02 ± 0.22 and 2.36 ± 0.26. Taken in the same sequence, the figures for PTTRNYPELNNNQYNRSSNSNGGN [CDC14A] were 4.654 ± 0.022 and 4.79 ± 0.1. The corresponding values for CKIRIQRQLEIMGKEVSGDQIEDM [STX11] are 4.01 ± 0.2 and 3.94 ± 0.12. In the case of GRLAMDEIFQKPFQTLMFLVRDWS [ATL3], the protein stability index was found to be 2.25 ± 0.55 under setting [1] and 2.09 ± 0.21 under setting [2]. Sequence WEKVGSGGFGQVYKVRHVHWKTWL [RIPK4] gave a protein stability index under setting [2] of 2.24 ± 0.21. On to SSSEQLQCCQTEIIELRRTVNALE [KRT36], for which the protein stability index under setting [1] was 3.58 ± 0.12 and the protein stability index under setting [2] came to 3.34 ± 0.38. On to DRSDYFAAWGARVFSFGKHYWELD [TRIM43], for which the protein stability index is, setting by setting: under setting [1], 2.14 ± 0.44; under setting [2], 2.15 ± 0.57. Taken in the same sequence, the figures for DTLADDVPGHQTPSDLDQFSDSSL [LURAP1L] were 5.44 ± 0.2 and 5.366 ± 0.053.

Source of the values: the supplement of paper PMC10567573.
